Experimental data reported in the DeepSol protein solubility set.

Experiment: soluble on expression in E. coli; label from the status in PepcDB or PDB records
With “MSLGISNAIDNSVRARVLGIKTEFRNFNTGRTFFLPQHVALLGQGNTAATYELTPFRATSAAQVGQRFGFGSPLHLAALQLLPDNNDGLRSIPLTIFPMGDNDAGVAAEGVLDLSGTASATATVRVRIGSQRSSLVTIPTGTTAEQAAALLVAGIQGNPFMPMTAAVDGTNANEVDVTAKWQGLSGNDLVVSIEGSIPGITVAITQPTGGAADPEVADTLALFGENVWYTQIVSCFNTANTDALDAFETFGEGRWDPILRRPLAVFTGTNETDPNTLAAIGDARRAQRTNLVTPVPGAQNLPCEIAAAWVARVARSANNDPASDFARLTLPGLTPGTDAQQWTHTQRDLLVKAGISTSIVRDGVAEISDTVTTYHPTGEVNPGYLFYKDTVKASNVLFNLDLIFNTREWDGAPLIPDDQPTTNARAKRPKDAVAVLSVLANNLGLDAIISDVPFTLENIRASINDQNPNRLDIIFPAKNSGNANIISADYFFGFFLGTEGHHHHHH” the “soluble on expression in E. coli” value was “soluble”.
In the case of “MSLGNPHMPLLLALSKGFVEPVYRAAFLASAASSGVLAALAVRPCDLESLAERLDIDDEDLPRLKEWLDMGIRLGDLGKREGCYKLRSLPAKALAQPGNDAIAAALEEVLRFHVPALLNGPRMLREGRRFSLDDQDGLVIARSTRVIQPLVEEAIARTLDRNAPVRLLEVGCGSGTYVRYAAELNPRLSALAVDLQQDVADSAAANMAEWGLTDRVETRQADLRTLDAQPQFDLVTLHNNIYYFPEAERVEALRRAHDLLAPGGRLLLTTSCKGGNVGLEALNLWFTYADFGGPLPQADALADQLRQAGFDDVEATRIVPGEQFHAFTGTSKRVAHAEGHHHHHH”, the “soluble on expression in E. coli” value is reported as “not soluble”.
In the case of “MSLGNSYAGQLKTTRFEEVLHNSIEASLRSNNLVPRPIFSQLYLEAEQQLAALEGGSRVDNEEEEEEGEGGLETNGPPNPFQLHPLPEGCCTTDGFCQAGKDLRLVSISNEPMDVPAGFLLVGVKSPSLPDHLLVCAVDKRFLPDDNGHNALLGFSGNCVGCGKKGFCYFTEFSNHINLKLTTQPKKQKHLKYYLVRNAQGTLTKGPLICWKGSEFRSRQIPASTCSSSLFPALESTAAFPSEPVPGTNPSILMGAQQAGPASDHPSLNAAMGPAVFNGKDSPKCQQLAKNNLLALPRPSALGILSNSGPPKKRHKGWSPESPSAPDGGCPQGGGNRAKYESAGMSCVPQVGLVGPASVTFPVVASGEPVSVPDNLLKICKAKPVIFKVFVNGATQMVALGPAEEGHHHHHH”, the “soluble on expression in E. coli” value is reported as “not soluble”.
For “MSLGPILVASEDYGRRVELSAMLRGFGYRVIEAENGLRTIDLLHRRKNIVLALLDVVMSDLSVGDLIKMIRVAGVAVPIVVIAQQENQELLQKALTAGAIDYWIHPVTLLRLRVTLDTLALISALEREVHYIRRKKENHLRFSDLSIKSRAMQIVLEQSKRAASSLQNLLIEGEVGTGRETLARIIHHEGLLSEGDFIRFQCLAIVDPEEENHQWFKEFIPLVSSLEKGTLCLCDVDRLEPIQQKRFMHYLKEREKATKDKVFPFRIIAISTSRLSDLVKEGFFLHSLFEQFSQLSISVPALRELRDDFPDLTQRLIDRIITETGRSHVHGLAGSALSLLMQYDWPGNRNGLENFLFRAILLSDGPLLTVRDFPQLMGNSLMNVPKIIESNMQEDHEQESVKFLDVDGHVRTFAEMERDIIEKAFKHYKGHMSEIARRLRIGRSTLYRKIEGLRAISSQEGHHHHHH”, the “soluble on expression in E. coli” value was “soluble”.
In the case of “MSLGSTQLQLHGLLSNISSKEGTYAKLGGLYTQSLARLVAKCEDLFMGGQKKELHFNENNWSLFKLTCNKPCCDSGDAIYYCATCSEDPGSTYAVKICKAPEPKTVSYCSPSVPVHFNIQQDCGHFVASVPSSMLSSPDAPKDPVPALPTHPPAQEQDCVVVITREVPHQTASDFVRDSAASHQAEPEAYERRVCFLLLQLCNGLEHLKEHGIIHRDLCLENLLLVHCTLQAGPREKQLPRLIISNFLKAKQKPGGTPNLQQKKSQARLAPEIVSASQYRKFDEFQTGILIYELLHQPNPFEVRAQLRERDYRQEDLPPLPALSLYSPGLQQLAHLLLEADPIKRIRIGEAKRVLQCLLWGPRRELVQQPGTSEEALCGTLHNWIDMKRALMMMKFAEKAVDRREGHHHHHH”, the “soluble on expression in E. coli” value is reported as “not soluble”.
